# Assays:
# [1] = target: DNMT3BΔ214 (residues 215–853) D817G (human) (UniProt Q9UBC3); test: AUC; sedimentation velocity, 40,000 rpm, 15 h, 20 C; 20 mM Tris-HCl pH 8.0, 300 mM NaCl, 1 mM TCEP, 5% glycerol; WT DNMT3BΔ214-3L at 2.5, 5.0 and 6.25 uM, mutant complexes at 5 uM; c(s) model in SEDFIT
# [2] = target: DNMT3BΔ214 (residues 215–853) D817G (human) (UniProt Q9UBC3)
# [3] = target: DNMT3BΔ214 (residues 215–853) H814R (human) (UniProt Q9UBC3); test: AUC; sedimentation velocity, 40,000 rpm, 15 h, 20 C; 20 mM Tris-HCl pH 8.0, 300 mM NaCl, 1 mM TCEP, 5% glycerol; WT DNMT3BΔ214-3L at 2.5, 5.0 and 6.25 uM, mutant complexes at 5 uM; c(s) model in SEDFIT
# [4] = target: DNMT3BΔ214 (residues 215–853) H814R (human) (UniProt Q9UBC3)
# [5] = target: DNMT3BΔ214 (residues 215–853) V818M (human) (UniProt Q9UBC3); test: AUC; sedimentation velocity, 40,000 rpm, 15 h, 20 C; 20 mM Tris-HCl pH 8.0, 300 mM NaCl, 1 mM TCEP, 5% glycerol; WT DNMT3BΔ214-3L at 2.5, 5.0 and 6.25 uM, mutant complexes at 5 uM; c(s) model in SEDFIT
# [6] = target: DNMT3BΔ214 (residues 215–853) V818M (human) (UniProt Q9UBC3)
substance,measurement,setting,value
DNMT3BΔ214 (residues 215–853) D817G (from UniProt Q9UBC3 215-853) (domain or fragment),"percent of the population as hetero-tetramer (168 kDa peak, DNMT3B dimerised)",[1],4.9%
same,"MTase activity of the DNMT3BΔ214-3L complex (MTase-Glo, 0.2 uM complex, 36-bp dsDNA), percent of the WT complex",[2],5.43 % of WT
DNMT3BΔ214 (residues 215–853) H814R (from UniProt Q9UBC3 215-853) (domain or fragment),"percent of the population as hetero-tetramer (168 kDa peak, DNMT3B dimerised)",[3],1.5%
same,"MTase activity of the DNMT3BΔ214-3L complex (MTase-Glo, 0.2 uM complex, 36-bp dsDNA), percent of the WT complex",[4],1.09 % of WT
DNMT3BΔ214 (residues 215–853) V818M (from UniProt Q9UBC3 215-853) (domain or fragment),"percent of the population as hetero-tetramer (168 kDa peak, DNMT3B dimerised)",[5],28.3%
same,"MTase activity of the DNMT3BΔ214-3L complex (MTase-Glo, 0.2 uM complex, 36-bp dsDNA), percent of the WT complex",[6],35.9 % of WT

# From article PMC11408749
